Experiment [1] concerns the target human cytochrome b5 T70C, unlabeled (human) (UniProt P00167). In words: SDS-PAGE with and without reducing agent; purified b5 variant run with or without β-mercaptoethanol (10%, v/v) or DTT; monomer at 17 kDa, dimer at 34 kDa; disulfide-linked dimer.
The target of experiment [2] is cytochrome P450 17A1 (Homo sapiens) (UniProt P05093). Kind of experiment: surface plasmon resonance. The note with it: cited from earlier work. (In general: Surface plasmon resonance follows binding to a sensor surface in real time, without labels.)
The target in experiment [3] is human cytochrome b5 K24C, unlabeled (human) (UniProt P00167). In words: SDS-PAGE with and without reducing agent; purified b5 variant run with or without β-mercaptoethanol (10%, v/v) or DTT; monomer at 17 kDa, dimer at 34 kDa; disulfide-linked dimer.
Experiment [4] concerns the target previously constructed Alexa 488-T70C-b5 (ref. 19; nonspecifically labelled) (human) (UniProt P00167). Described as above.
The target of experiment [5] is P450 17A1 peptide (putative b5 binding site of P450 17A1) (human). In words: fluorescence polarisation; competition: nonlabeled WT b5 at various concentrations added to the complex of Alexa 488-b5 T70C (10 nM) and P450 17A1 peptide (100 μM). (In general: In fluorescence polarisation assays a small probe gives low polarisation when free and higher when bound to something large.)

For experiment [6] the target is unchanged. In words: fluorescence polarisation; competition: nonlabeled WT b5 at various concentrations added to the complex of Alexa 488-b5 K77C (10 nM) and P450 17A1 peptide (100 μM).
Experiment [7] concerns the target Alexa 488-labeled human cytochrome b5 T70C (singly labelled at Cys-70, this paper) (human) (UniProt P00167). In words: fluorescence polarisation; P450 17A1 protein or P450 17A1 peptide added to Alexa 488-labeled b5 variant (10 nM) in 1 mM potassium phosphate buffer, pH 7.4, 384-well plate, 50 μl; anisotropy fitted with a quadratic equation.
Experiment [8] deals with Alexa 488-labeled human cytochrome b5 K77C (human) (UniProt P00167). The description is as above.

On to “human cytochrome b5 T70C, unlabeled (from UniProt P00167 1-134) (natural protein)”, for which the stoichiometry N (as a rule, a count of units in the complex or per binding partner) in experiment [1] turned out to be 2.

As for cytochrome b5 (from UniProt P00167), the Kd (commonly the free concentration of one partner at which half of the binding sites on the other are occupied at equilibrium, for simple one-to-one binding) in experiment [2] was 440 nM.

For the molecule “human cytochrome b5 K24C, unlabeled (from UniProt P00167 1-134) (natural protein)”, the stoichiometry N in experiment [3] amounted to 2.

As for “previously constructed Alexa 488-T70C-b5 (ref. 19; nonspecifically labelled) (from UniProt P00167 1-134) (natural protein)”, the stoichiometry N in experiment [4] was determined as 2.

Consider “human cytochrome b5, WT, nonlabeled (from UniProt P00167 1-134) (natural protein)”, for which the IC50 (usually the concentration at which inhibition is half-maximal) in experiment [5] worked out at 129 nM; in experiment [6], 223 nM.

B1: human cytochrome P450 17A1 (steroid 17α-hydroxylase/17,20-lyase) (enzyme)
chain: MWELVALLLLTLAYLFWPKRRCPGAKYPKSLLSLPLVGSLPFLPRHGHMHNNFFKLQKKYGPIYSVRMGTKTTVIVGHHQLAKEVLIKKGKDFSGRPQMATLDIASNNRKGIAFADSGAHWQLHRRLAMATFALFKDGDQKLEKIICQEISTLCDMLATHNGQSIDISFPVFVAVTNVISLICFNTSYKNGDPELNVIQNYNEGIIDNLSKDSLVDLVPWLKIFPNKTLEKLKSHVKIRNDLLNKILENYKEKFRSDSITNMLDTLMQAKMNSDNGNAGPDQDSELLSDNHILTTIGDIFGAGVETTTSVVKWTLAFLLHNPQVKKKLYEEIDQNVGFSRTPTISDRNRLLLLEATIREVLRLRPVAPMLIPHKANVDSSIGEFAVDKGTEVIINLWALHHNEKEWHQPDQFMPERFLNPAGTQLISPSVSYLPFGAGPRSCIGEILARQELFLIMAWLLQRFDLEVPDDGQLPSLEGIPKVVFLIDSFKVKIKVRQAWREAQAEGST
As for B1, the Kd in experiment [7] amounted to 379 nM; in experiment [8], 125 nM.

B2: P450 17A1 peptide (putative b5 binding site of P450 17A1) (peptide)
peptide: RNRLLLLEATIR
Consider B2, for which the Kd in experiment [7] came out at 113000 nM; in experiment [8], 52000 nM.

The values are drawn from PMC10878793.
